Assays:
TrkC = target: T1, TrkC (Homo sapiens, UniProt Q16288); experiment: Trk activation by Western blot of phospho-Trk in NIH3T3 cells expressing TrkC; type: cell-based
T1 construct: expressed in transfected cells; host or cells: NIH3T3 (mouse fibroblasts, no native Trk receptors)
Procedure: (§1) To assess the interactions of the BDNF loop 2 mimetic compounds with TrkB receptors, the ability of the compounds of the invention to activate TrkA, TrkB, and TrkC is compared in a series of Western blotting experiments. […] Western blots were used to detect phospho-Trk which is a standard method for detecting Trk activation.
A measurement of NIH3T3 cells expressing TrkC can also be used to evaluate the compounds of the invention. Total amount of TrkC present is determined by probing with anti-TrkC antibodies.

[1] = system: E16-17 hippocampal neurons; experiment: Aβ-induced neuronal degeneration (Alzheimer's disease model); type: cell-based; conditions: for prevention of Aβ-induced degeneration: Aβ1-42 oligomer 10 μM
Procedure: The ability of the BDNF mimetics to prevent Aβ-induced neuronal degeneration can be tested as a model of the compounds' ability to treat Alzheimer's disease. E16-17 hippocampal neurons are matured for 6 days and then incubated for 3 days with the indicated combinations of Aβ oligomer preparations (Dahigren, K. N., et al. (2002) J Biol Chem 277, 32046-32053), neurotrophins and neurotrophin mimetics. Following the three day incubation, neuronal survival is assessed using standard morphological criteria (Massa, S. M., et al. (2006) J Neurosci 26, 5288-5300).
Addition of Aβ1-42 oligomer (10 μM) but not control AβScrambled oligomer (10 μM) results in an approximate 40% reduction in neuronal survival. […] The effectiveness of BDNF mimetics of the present invention can be compared to BDNF in blocking Aβ-induced degeneration.

[2] = system: mouse E16 striatal neurons; conditions: cited from earlier work
TrkB = target: T2, TrkB (Homo sapiens, UniProt Q16620); experiment: Trk activation by Western blot of phospho-Trk in NIH3T3 cells expressing TrkB; type: cell-based
T2 construct: expressed in transfected cells; host or cells: NIH3T3 (mouse fibroblasts, no native Trk receptors)
T2 sequence (Q16620 32-822): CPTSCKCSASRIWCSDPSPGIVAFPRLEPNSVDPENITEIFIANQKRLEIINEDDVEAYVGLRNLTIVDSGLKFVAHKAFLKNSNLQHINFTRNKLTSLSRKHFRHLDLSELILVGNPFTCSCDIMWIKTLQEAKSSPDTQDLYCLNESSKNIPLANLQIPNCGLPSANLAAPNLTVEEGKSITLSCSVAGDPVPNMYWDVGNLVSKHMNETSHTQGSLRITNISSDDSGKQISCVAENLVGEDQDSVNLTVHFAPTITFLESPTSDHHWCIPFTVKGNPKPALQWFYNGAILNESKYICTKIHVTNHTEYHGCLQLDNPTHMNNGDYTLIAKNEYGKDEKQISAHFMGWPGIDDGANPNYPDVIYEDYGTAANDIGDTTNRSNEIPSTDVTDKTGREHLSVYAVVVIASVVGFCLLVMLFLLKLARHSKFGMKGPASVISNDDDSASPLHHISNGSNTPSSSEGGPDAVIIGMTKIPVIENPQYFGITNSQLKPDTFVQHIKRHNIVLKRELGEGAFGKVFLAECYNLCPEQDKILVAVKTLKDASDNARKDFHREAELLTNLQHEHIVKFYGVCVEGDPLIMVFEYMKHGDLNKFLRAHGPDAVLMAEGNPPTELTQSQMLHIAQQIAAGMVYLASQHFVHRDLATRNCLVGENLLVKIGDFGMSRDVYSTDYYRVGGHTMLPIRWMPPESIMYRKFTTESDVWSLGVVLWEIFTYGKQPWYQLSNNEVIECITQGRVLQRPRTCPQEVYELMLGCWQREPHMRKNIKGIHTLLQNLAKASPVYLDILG
From the text: as §1

TrkA = target: T3, TrkA (Homo sapiens, UniProt P04629); experiment: Trk activation by Western blot of phospho-Trk in NIH3T3 cells expressing TrkA; type: cell-based
T3 construct: expressed in transfected cells; host or cells: NIH3T3 (mouse fibroblasts, no native Trk receptors)
T3 sequence (P04629 33-796): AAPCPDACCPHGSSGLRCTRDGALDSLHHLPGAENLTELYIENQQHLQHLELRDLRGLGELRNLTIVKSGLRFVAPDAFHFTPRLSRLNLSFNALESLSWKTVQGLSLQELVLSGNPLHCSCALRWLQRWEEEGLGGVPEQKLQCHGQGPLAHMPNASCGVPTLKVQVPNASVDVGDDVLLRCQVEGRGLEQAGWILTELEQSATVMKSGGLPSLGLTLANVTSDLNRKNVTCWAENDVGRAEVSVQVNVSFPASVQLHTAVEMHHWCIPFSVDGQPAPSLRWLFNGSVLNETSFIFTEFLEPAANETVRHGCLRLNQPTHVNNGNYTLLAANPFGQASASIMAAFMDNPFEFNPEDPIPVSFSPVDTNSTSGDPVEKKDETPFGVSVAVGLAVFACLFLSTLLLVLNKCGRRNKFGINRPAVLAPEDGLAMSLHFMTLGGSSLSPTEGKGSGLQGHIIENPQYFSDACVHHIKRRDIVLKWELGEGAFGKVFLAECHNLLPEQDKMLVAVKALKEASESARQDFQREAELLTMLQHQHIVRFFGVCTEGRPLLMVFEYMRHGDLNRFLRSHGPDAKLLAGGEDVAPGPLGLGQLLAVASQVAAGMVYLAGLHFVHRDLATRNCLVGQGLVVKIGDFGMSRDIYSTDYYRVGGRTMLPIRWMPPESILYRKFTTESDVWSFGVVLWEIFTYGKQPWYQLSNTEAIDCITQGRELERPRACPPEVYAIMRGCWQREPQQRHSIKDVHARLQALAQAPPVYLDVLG
From the text: as §1

T1 sequence (Q16288 32-839): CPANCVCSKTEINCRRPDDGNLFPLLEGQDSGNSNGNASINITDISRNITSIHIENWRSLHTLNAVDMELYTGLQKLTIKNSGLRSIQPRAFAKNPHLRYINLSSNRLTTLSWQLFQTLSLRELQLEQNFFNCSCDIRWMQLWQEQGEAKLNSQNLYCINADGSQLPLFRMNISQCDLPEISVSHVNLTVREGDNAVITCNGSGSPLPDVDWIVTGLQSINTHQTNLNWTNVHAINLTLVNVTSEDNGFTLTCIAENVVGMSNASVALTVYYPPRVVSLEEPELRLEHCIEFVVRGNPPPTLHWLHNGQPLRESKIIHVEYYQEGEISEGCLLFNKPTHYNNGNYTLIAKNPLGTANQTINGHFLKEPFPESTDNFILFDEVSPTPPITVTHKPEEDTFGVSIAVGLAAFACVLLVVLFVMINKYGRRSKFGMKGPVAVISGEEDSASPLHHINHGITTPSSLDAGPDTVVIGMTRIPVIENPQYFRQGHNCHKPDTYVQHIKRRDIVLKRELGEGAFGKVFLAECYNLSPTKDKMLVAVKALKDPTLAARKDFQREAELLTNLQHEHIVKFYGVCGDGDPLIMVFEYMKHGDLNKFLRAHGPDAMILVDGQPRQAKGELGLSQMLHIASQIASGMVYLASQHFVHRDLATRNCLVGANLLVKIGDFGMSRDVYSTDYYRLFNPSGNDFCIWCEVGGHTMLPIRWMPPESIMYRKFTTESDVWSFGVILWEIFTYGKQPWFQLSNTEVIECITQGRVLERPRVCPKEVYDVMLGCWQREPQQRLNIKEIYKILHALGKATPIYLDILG

In the case of “NT-3: Neurotrophin-3; native ligand of TrkC”, the “phosphorylation of Trk in TrkC-expressing cells” value (TrkC) is reported as “promotes the phosphorylation of Trk”.

With “Aβ1-42 oligomer: amyloid-β 1-42 oligomer preparation used to induce neuronal degeneration [reference compound]” the “reduction in neuronal survival” value ([1]; 10 μM, 3 day incubation) was ~40%.

In the case of COC(=O)[C@@]1(O)C[C@H]2O[C@]1(C)n1c3ccccc3c3c4c(c5c6ccccc6n2c5c31)C(=O)NC4 [Compound K252a], the “effect on quinolinic acid-induced death” value ([2]; K252a alone) is listed as “no effect” and the “effect on the ability of BDNF to prevent quinolinic acid-induced death” value ([2]; K252a with BDNF) is listed as “blocks the ability of BDNF to prevent death”.

With CC[C@H](C)[C@H](N)C(=O)NCCN1CCOCC1 [LM11A-31, reference compound] the “prevention of Aβ-induced degeneration” value ([1]; 3 day incubation) was “blocks Aβ-induced degeneration”.

In the case of “NGF: Nerve Growth Factor, a neurotrophin; native ligand of TrkA”, the “activation of TrkB (Trk phosphorylation, anti-TrkY490)” value (TrkB) is reported as “do not activate TrkB”, the “prevention of Aβ-induced degeneration” value ([1]; 3 day incubation) is reported as “fails to prevent Aβ-induced degeneration” and the “effect on LM11A-31 blocking of Aβ-induced degeneration” value ([1]; NGF together with LM11A-31) is reported as “blocked”.

B1: BDNF: Brain Derived Neurotrophic Factor, a neurotrophin; native ligand of TrkB (protein, UniProt P23560 19-247, looked up)
Neurotrophic factor BDNF …: APMKEANIRGQGGLAYPGVRTHGTLESVNGPKAGSRGLTSLADTFEHVIEELLDEDQKVRPNEENNKDADLYTSRVMLSSQVPLEPPLLFLLEEYKNYLDAANMSMRVRRHSDPARRGELSVCDSISEWVTAADKKTAVDMSGGTVTVLEKVPVSKGQLKQYFYETKCNPMGYTKEGCRGIDKRHWNSQCRTTQSYVRALTMDSKKRIGWRFIRIDTSCVCTLTIKRGR
In the case of B1, the “phosphorylation of Trk in TrkC-expressing cells” value (TrkC) is reported as “do not”, the “activation of TrkA (Trk phosphorylation)” value (TrkA) is reported as “does not” and the “activation of TrkB (Trk phosphorylation, anti-TrkY490)” value (TrkB) is reported as “activate TrkB”. For the same molecule, the “prevention of quinolinic acid-induced death” value ([2]; previous work) was “can prevent quinolinic acid-induced death”.

Reference: US20140296343A1, “NON-PEPTIDE BDNF NEUROTROPHIN MIMETICS” (PharmatrophiX, Inc., priority 2010, published 2014)
